Assay results taken from patent US20240261333A1 (published 2024).

T1: IFNAR1, endogenous in A375 melanoma cells (human, UniProt P17181 28-557, poly-LacNAc glycosylation added by B3GNT2 (sites not given))
T1 construct: whole, on cells; In the co-IP it comes from the lysate of A375 cells; also called IFNARI
T1 sequence (looked up): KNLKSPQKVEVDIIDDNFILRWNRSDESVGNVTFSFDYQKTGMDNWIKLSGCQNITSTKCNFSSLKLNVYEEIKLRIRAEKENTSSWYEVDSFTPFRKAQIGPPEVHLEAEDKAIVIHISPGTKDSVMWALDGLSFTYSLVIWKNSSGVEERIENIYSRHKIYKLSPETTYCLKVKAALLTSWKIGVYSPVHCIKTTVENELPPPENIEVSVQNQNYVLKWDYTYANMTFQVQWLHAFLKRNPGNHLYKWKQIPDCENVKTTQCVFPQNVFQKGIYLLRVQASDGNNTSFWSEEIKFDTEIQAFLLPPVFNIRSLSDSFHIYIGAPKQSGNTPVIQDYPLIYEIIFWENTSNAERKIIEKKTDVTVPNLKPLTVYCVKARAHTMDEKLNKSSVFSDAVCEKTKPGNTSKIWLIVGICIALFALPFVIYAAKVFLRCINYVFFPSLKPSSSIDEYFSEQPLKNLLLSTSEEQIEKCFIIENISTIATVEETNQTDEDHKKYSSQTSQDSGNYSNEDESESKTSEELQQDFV

T2: CD276, endogenous in A375 melanoma cells (human, UniProt Q5ZPR3 29-534, poly-LacNAc glycosylation added by B3GNT2 (sites not given))
T2 construct: whole, on cells; On fixed A375 cells in flow cytometry; In the co-IP it comes from the lysate of these cells; also called B7H3
T2 sequence (looked up): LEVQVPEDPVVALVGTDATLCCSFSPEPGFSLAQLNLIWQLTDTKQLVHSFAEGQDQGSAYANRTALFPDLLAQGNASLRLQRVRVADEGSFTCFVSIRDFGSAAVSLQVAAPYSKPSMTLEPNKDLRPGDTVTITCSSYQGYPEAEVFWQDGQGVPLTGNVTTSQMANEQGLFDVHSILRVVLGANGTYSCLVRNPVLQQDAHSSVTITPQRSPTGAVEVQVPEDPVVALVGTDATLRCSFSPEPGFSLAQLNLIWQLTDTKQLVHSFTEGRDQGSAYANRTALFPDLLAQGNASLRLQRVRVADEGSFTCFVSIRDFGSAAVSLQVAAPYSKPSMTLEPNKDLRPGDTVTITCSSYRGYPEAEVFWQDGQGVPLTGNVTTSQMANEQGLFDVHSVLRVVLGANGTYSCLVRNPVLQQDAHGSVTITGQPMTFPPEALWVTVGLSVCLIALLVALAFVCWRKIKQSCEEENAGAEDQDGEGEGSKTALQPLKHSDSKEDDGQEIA

T3: TNFRSF1A, endogenous in A375 melanoma cells (human, UniProt P19438 30-455, poly-LacNAc glycosylation added by B3GNT2 (sites not given))
T3 construct: whole, on cells; In the co-IP it comes from the lysate of A375 cells
T3 sequence (looked up): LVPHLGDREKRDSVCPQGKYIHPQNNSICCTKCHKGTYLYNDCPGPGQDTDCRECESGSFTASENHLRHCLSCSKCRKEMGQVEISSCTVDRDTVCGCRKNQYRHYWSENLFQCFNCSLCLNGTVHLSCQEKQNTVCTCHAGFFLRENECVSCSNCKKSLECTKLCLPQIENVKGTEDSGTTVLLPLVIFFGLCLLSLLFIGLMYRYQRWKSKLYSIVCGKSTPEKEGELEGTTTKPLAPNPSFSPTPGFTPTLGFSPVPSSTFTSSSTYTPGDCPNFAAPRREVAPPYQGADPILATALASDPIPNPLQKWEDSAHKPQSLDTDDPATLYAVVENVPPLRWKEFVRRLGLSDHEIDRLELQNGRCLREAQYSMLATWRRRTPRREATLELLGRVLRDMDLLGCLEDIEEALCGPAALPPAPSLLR

T4: MARS (human, UniProt P56192 1-900)
T4 construct: also called NP_004981.2
T4 sequence (looked up): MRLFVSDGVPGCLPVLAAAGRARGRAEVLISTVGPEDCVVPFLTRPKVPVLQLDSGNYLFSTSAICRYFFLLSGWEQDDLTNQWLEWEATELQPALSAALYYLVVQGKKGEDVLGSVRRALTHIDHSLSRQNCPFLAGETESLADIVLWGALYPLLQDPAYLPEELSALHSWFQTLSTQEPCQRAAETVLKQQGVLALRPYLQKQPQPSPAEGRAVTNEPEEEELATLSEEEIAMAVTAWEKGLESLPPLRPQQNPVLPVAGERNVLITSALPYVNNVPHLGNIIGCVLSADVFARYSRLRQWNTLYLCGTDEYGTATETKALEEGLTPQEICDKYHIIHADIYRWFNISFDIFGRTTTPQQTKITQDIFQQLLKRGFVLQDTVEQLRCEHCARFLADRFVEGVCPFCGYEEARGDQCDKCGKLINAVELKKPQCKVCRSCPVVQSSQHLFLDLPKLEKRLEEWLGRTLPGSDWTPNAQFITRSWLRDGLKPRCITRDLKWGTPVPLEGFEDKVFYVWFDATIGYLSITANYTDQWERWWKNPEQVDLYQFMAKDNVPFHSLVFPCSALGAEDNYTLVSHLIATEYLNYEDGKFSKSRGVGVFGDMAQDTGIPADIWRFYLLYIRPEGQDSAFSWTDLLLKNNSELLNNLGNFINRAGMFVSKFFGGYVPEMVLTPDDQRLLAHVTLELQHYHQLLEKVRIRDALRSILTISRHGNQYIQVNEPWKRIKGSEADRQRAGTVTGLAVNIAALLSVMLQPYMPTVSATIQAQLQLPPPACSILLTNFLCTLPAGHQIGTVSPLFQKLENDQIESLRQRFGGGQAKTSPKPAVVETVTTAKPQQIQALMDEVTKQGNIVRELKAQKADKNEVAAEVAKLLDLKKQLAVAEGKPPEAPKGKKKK

T5: CD70 (human, UniProt P32970 1-193)
T5 construct: also called NP_001243.1
T5 sequence (looked up): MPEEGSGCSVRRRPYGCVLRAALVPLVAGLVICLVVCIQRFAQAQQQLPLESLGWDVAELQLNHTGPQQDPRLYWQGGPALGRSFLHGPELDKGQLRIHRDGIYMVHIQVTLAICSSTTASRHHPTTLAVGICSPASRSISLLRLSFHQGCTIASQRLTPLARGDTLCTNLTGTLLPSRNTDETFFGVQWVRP


Experiments:
[1] = target: T1, IFNAR1, endogenous in A375 melanoma …; test: co-IP of FLAG tagged B3GNT2 from A375 lysate, Western blot
Procedure: (§1) Cells were plated in 10-cm cell culture dishes and grown to 60-80% confluency. For each condition, two biological replicates were harvested for co-IP. Cells were washed with PBS and 4 mL of lysis buffer (20 mM HEPES, 1% Triton X-100, 150 mM NaCl, 1 mM EDTA, and 10% glycerol) containing protease inhibitor cocktail was added. Cells were scraped and lysate was incubated at 4° C. under rotary agitation for 1 h. Lysate was centrifuged at 14,000×g for 10 min at 4° C. Supernatant was transferred to a new tube and an aliquot was taken as the input. […] For Western blots, 10 μg/mL Chicken Anti-FLAG (Aves labs ET-DY100) and IgY control (R&D Systems AB-101-C) antibodies were biotinylated (Thermo Fisher Scientific 90407) and added to the respective conditions. Lysates with antibodies were incubated at 4° C. under rotary agitation overnight. For each mL of lysate, 50 μL of Pierce Protein A/G Magnetic Beads (Mass spectrometry; Thermo Fisher Scientific 88803) or Pierce Streptavidin Magnetic Beads (Western blot; Thermo Fisher Scientific 88817) was washed twice with lysis buffer. Lysates with antibodies were added to the beads and incubated at 4° C. under rotary agitation for 4 h. Beads were washed with lysis buffer 3 times and resuspended in lysis buffer for storage.

[2] = target: T2, CD276, endogenous in A375 melanoma cells; test: as above
Procedure: as §1

[3] = target: T3, TNFRSF1A, endogenous in A375 melanoma …; test: as above
Procedure: as §1

MARS = target: T4, MARS; test: co-IP with anti-FLAG, mass spectrometry; lysate of cells with C-FLAG B3GNT2
Procedure: as §1
(§2) Magnetic beads were resuspended in 100 mM Tris pH 7.8, reduced, alkylated and digested with trypsin at 37° ° C. overnight. This solution was subjected to solid phase extraction to concentrate the peptides and remove unwanted reagents followed by injection onto a Shimadzu HPLC with fraction collector. Eight fractions were collected and after concentration were injected on a Waters NanoAcquity HPLC equipped with a self-packed Aeris 3 μm C18 analytical column 0.075 mm by 20 cm, (Phenomenex). Peptides were eluted using standard reverse-phase gradients. The effluent from the column was analyzed using a Thermo Orbitrap Elite mass spectrometer (nanospray configuration) operated in a data dependent manner for 54 minutes. […]

CD70 = target: T5, CD70; test: as above
Procedure: as §1, §2

PSMD4 = target: T6, PSMD4 (human, UniProt P55036 1-377, limits assumed); test: as above
T6 construct: also called NP_001317621.1 (+1)
T6 sequence (P55036 whole entry): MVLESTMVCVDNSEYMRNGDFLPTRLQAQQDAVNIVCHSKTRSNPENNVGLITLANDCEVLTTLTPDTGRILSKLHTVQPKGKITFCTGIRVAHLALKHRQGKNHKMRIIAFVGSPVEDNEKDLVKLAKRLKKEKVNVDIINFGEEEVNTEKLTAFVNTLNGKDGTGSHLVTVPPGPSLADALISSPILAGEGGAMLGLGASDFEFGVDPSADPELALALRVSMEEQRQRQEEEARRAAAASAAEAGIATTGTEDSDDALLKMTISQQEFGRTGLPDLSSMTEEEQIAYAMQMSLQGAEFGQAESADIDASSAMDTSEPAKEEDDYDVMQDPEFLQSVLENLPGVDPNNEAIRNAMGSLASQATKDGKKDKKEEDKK
Procedure: as §1, §2

Row | binding result [1] | binding result [2] | binding result [3] | co-IP mass spectrometry count (MARS) | co-IP mass spectrometry count (CD70) | co-IP mass spectrometry count (PSMD4) | Binder
1 | binds | binds | binds |  |  |  | FLAG tagged B3GNT2 (N- or C-terminal FLAG tag) (enzyme, human, UniProt Q9NY97 1-397, looked up, The text speaks of the co-IP of B3GNT2 without separating the N-FLAG and C-FLAG constructs, so both are held as one molecule; also called N-FLAG B3GNT2; C-FLAG B3GNT2; not shown: FLAG tag at the N- or the C-terminus) MSVGRRRIKLLGILMMANVFIYFIMEVSKSSSQEKNGKGEVIIPKEKFWKISTPPEAYWNREQEKLNRQYNPILSMLTNQTGEAGRLSNISHLNYCEPDLRVTSVVTGFNNLPDRFKDFLLYLRCRNYSLLIDQPDKCAKKPFLLLAIKSLTPHFARRQAIRESWGQESNAGNQTVVRVFLLGQTPPEDNHPDLSDMLKFESEKHQDILMWNYRDTFFNLSLKEVLFLRWVSTSCPDTEFVFKGDDDVFVNTHHILNYLNSLSKTKAKDLFIGDVIHNAGPHRDKKLKYYIPEVVYSGLYPPYAGGGGFLYSGHLALRLYHITDQVHLYPIDDVYTGMCLQKLGLVPEKHKGFRTFDIEEKNKNNICSYVDLMLVHSRKPQEMIDIWSQLQSAHLKC
2 |  |  |  | 0 | 2 | 0 | C-terminal FLAG tagged B3GNT2 (enzyme, human, UniProt Q9NY97 1-397, looked up, Bait of the co-IP; pulled down with mouse anti-FLAG (Millipore Sigma F3165) from cell lysate; also called C-FLAG B3GNT2; C-term flag; not shown: C-terminal FLAG tag) MSVGRRRIKLLGILMMANVFIYFIMEVSKSSSQEKNGKGEVIIPKEKFWKISTPPEAYWNREQEKLNRQYNPILSMLTNQTGEAGRLSNISHLNYCEPDLRVTSVVTGFNNLPDRFKDFLLYLRCRNYSLLIDQPDKCAKKPFLLLAIKSLTPHFARRQAIRESWGQESNAGNQTVVRVFLLGQTPPEDNHPDLSDMLKFESEKHQDILMWNYRDTFFNLSLKEVLFLRWVSTSCPDTEFVFKGDDDVFVNTHHILNYLNSLSKTKAKDLFIGDVIHNAGPHRDKKLKYYIPEVVYSGLYPPYAGGGGFLYSGHLALRLYHITDQVHLYPIDDVYTGMCLQKLGLVPEKHKGFRTFDIEEKNKNNICSYVDLMLVHSRKPQEMIDIWSQLQSAHLKC
